PMC2913173 (Journal of molecular biology, 2009)
eCPX = enhanced circularly permuted OmpX display protein

Molecular target: Bcl-xL (Homo sapiens, UniProt Q07817, DEL46-85)
Experiment: Cell surface display equilibrium binding assay with flow cytometry
Settings: cells displaying Bak–eCPX fusions, biotinylated Bcl-xL and SAPE

Molecule	Binding to Bcl-xL in words (fluorescence of cell population)
Bak(24–89): eCPX fusion protein comprising helices α1, α2, and α3 of Bak (protein) EEQVAQDTEEVFRSYVFYRHQQEQEAEGVAAPADPEMVTLPLQPSSTMGQVGRQLAIIGDDINRRY-eCPX	fluorescence only slightly above background levels
Bak(24–117): construct containing amino acids 24–117 of Bak (helices α1 to α4), eCPX fusion (protein, left off: eCPX (enhanced circularly permuted OmpX display protein), C-terminal, kept) EEQVAQDTEEVFRSYVFYRHQQEQEAEGVAAPADPEMVTLPLQPSSTMGQVGRQLAIIGDDINRRYDSEFQTMLQHLQPTAENAYEYFTKIATS	essentially no binding to Bcl-xL
